# Data reported in the supplement of paper PMC9112550, “Optimization of the antimicrobial peptide Bac7 by deep mutational scanning” (BMC Biology, 2022).
# Test system: Escherichia coli TOP10
# Experiment: shrunken log2 fold change of peptide-encoding DNA abundance (4.5 h post-induction vs induction); higher = less antimicrobial activity (less host growth inhibition)
# Conditions: time post-induction: 4.5 h; library: site-saturation at positions 5, 18, 19, 20
# 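Further: peptides expressed intracellularly from a pBAD plasmid library in pooled LB shake-flask culture, induced with 0.3% L-arabinose, DNA abundance read by NGS, three biological replicates, DESeq2 with apeglm shrinkage.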
row,Sequence,shrunken log2 fold change
1,RRIRGRPPRLPRPRPRPHNWPRP,0.18
2,RRIRERPPRLPRPRPRPQQAPRP,0.01
3,RRIRLRPPRLPRPRPRPWHDPRP,-0.205
4,RRIRVRPPRLPRPRPRPVQVPRP,-0.269
5,RRIRHRPPRLPRPRPRPTQIPRP,0.51
6,RRIRWRPPRLPRPRPRPMGWPRP,0.299
7,RRIRSRPPRLPRPRPRPRYEPRP,-0.12
8,RRIRQRPPRLPRPRPRPKVWPRP,0.153
9,RRIRTRPPRLPRPRPRPAECPRP,-0.112
10,RRIRHRPPRLPRPRPRPYAYPRP,-0.596
11,RRIRIRPPRLPRPRPRPIEKPRP,-0.0304
12,RRIRNRPPRLPRPRPRPVPIPRP,-0.0984
13,RRIRQRPPRLPRPRPRPDCQPRP,-0.0643
14,RRIRNRPPRLPRPRPRPLWEPRP,-0.106
15,RRIRQRPPRLPRPRPRPEFAPRP,0.482
16,RRIRHRPPRLPRPRPRPFGAPRP,-0.0114
17,RRIRIRPPRLPRPRPRPYRTPRP,0.0026
18,RRIRNRPPRLPRPRPRPDWWPRP,0.304
19,RRIRWRPPRLPRPRPRPMKCPRP,-0.0018
20,RRIRRRPPRLPRPRPRPRLNPRP,0.522
21,RRIRFRPPRLPRPRPRPVLSPRP,-0.0531
22,RRIRNRPPRLPRPRPRPASEPRP,-0.0216
23,RRIRYRPPRLPRPRPRPQIAPRP,-0.242
24,RRIRFRPPRLPRPRPRPWRPPRP,0.275
25,RRIRARPPRLPRPRPRPRCSPRP,0.205

row,Sequence,shrunken log2 fold change
1,RRIRYRPPRLPRPRPRPSKPPRP,-0.833
2,RRIRFRPPRLPRPRPRPAFVPRP,-0.028
3,RRIRLRPPRLPRPRPRPHASPRP,-0.046
4,RRIRARPPRLPRPRPRPSWVPRP,-0.174
5,RRIRMRPPRLPRPRPRPNFNPRP,-0.23
6,RRIRIRPPRLPRPRPRPSQKPRP,-0.187
7,RRIRMRPPRLPRPRPRPHASPRP,0.116
8,RRIRFRPPRLPRPRPRPAQGPRP,-0.00447
9,RRIRIRPPRLPRPRPRPILGPRP,-0.0266
10,RRIRDRPPRLPRPRPRPLMVPRP,-0.186
11,RRIRPRPPRLPRPRPRPNMEPRP,0.0784
12,RRIRYRPPRLPRPRPRPNTHPRP,-1.02
13,RRIRIRPPRLPRPRPRPPGKPRP,0.324
14,RRIRPRPPRLPRPRPRPSQHPRP,-0.278
15,RRIRTRPPRLPRPRPRPQMFPRP,0.0287
16,RRIRHRPPRLPRPRPRPLHHPRP,-0.554
17,RRIRFRPPRLPRPRPRPSSGPRP,-0.0411
18,RRIRTRPPRLPRPRPRPWLGPRP,-0.00306
19,RRIRGRPPRLPRPRPRPGSAPRP,0.972
20,RRIRQRPPRLPRPRPRPLTIPRP,-0.375
21,RRIRRRPPRLPRPRPRPANKPRP,0.0263
22,RRIRVRPPRLPRPRPRPAFEPRP,0.125
23,RRIRARPPRLPRPRPRPFKPPRP,-0.0739
24,RRIRIRPPRLPRPRPRPRFAPRP,0.129
25,RRIRPRPPRLPRPRPRPNSSPRP,-0.396

row,Sequence,shrunken log2 fold change
1,RRIRQRPPRLPRPRPRPVVWPRP,0.586
2,RRIRMRPPRLPRPRPRPSLRPRP,0.626
3,RRIRERPPRLPRPRPRPPWRPRP,0.424
4,RRIRGRPPRLPRPRPRPVFRPRP,0.375
5,RRIRPRPPRLPRPRPRPHEWPRP,0.278
6,RRIRWRPPRLPRPRPRPPKAPRP,-0.0568
7,RRIRRRPPRLPRPRPRPWTPPRP,0.568
8,RRIRWRPPRLPRPRPRPHVLPRP,-0.096
9,RRIRFRPPRLPRPRPRPIPPPRP,1.09
10,RRIRARPPRLPRPRPRPQWFPRP,0.0925
11,RRIRFRPPRLPRPRPRPCMQPRP,-0.163
12,RRIRPRPPRLPRPRPRPTLVPRP,0.114
13,RRIRPRPPRLPRPRPRPRDPPRP,0.695
14,RRIRWRPPRLPRPRPRPQNYPRP,-0.445
15,RRIRGRPPRLPRPRPRPWAFPRP,0.488
16,RRIRRRPPRLPRPRPRPMKTPRP,0.0796
17,RRIRRRPPRLPRPRPRPAISPRP,-0.0296
18,RRIRGRPPRLPRPRPRPEPYPRP,0.141
19,RRIRRRPPRLPRPRPRPKPGPRP,0.535
20,RRIRSRPPRLPRPRPRPLTKPRP,-0.175
21,RRIRCRPPRLPRPRPRPTVLPRP,-0.174
22,RRIRIRPPRLPRPRPRPRGMPRP,0.0423
23,RRIRNRPPRLPRPRPRPYNMPRP,-0.0281
24,RRIRWRPPRLPRPRPRPLGGPRP,0.253
25,RRIRWRPPRLPRPRPRPLFAPRP,0.579

row,Sequence,shrunken log2 fold change
1,RRIRQRPPRLPRPRPRPNYSPRP,-0.397
2,RRIRFRPPRLPRPRPRPPYNPRP,-0.323
3,RRIRPRPPRLPRPRPRPMQVPRP,-0.012
4,RRIRPRPPRLPRPRPRPFGFPRP,0.0716
5,RRIRFRPPRLPRPRPRPWMLPRP,-0.277
6,RRIRDRPPRLPRPRPRPNGDPRP,-0.00931
7,RRIRNRPPRLPRPRPRPRVLPRP,0.0234
8,RRIRARPPRLPRPRPRPESIPRP,-0.0955
9,RRIRVRPPRLPRPRPRPWFMPRP,-0.537
10,RRIRYRPPRLPRPRPRPMCPPRP,-0.217
11,RRIRKRPPRLPRPRPRPPLNPRP,0.309
12,RRIRIRPPRLPRPRPRPLDGPRP,0.0631
13,RRIRFRPPRLPRPRPRPWISPRP,-0.456
14,RRIRGRPPRLPRPRPRPARPPRP,0.63
15,RRIRARPPRLPRPRPRPEPRPRP,0.679
16,RRIRERPPRLPRPRPRPTPNPRP,0.0742
17,RRIRFRPPRLPRPRPRPEDDPRP,-0.18
18,RRIRDRPPRLPRPRPRPQCQPRP,-0.00822
19,RRIRKRPPRLPRPRPRPFHAPRP,-0.179
20,RRIRIRPPRLPRPRPRPADHPRP,-0.0431
21,RRIRPRPPRLPRPRPRPFTWPRP,-0.236
22,RRIRYRPPRLPRPRPRPMKMPRP,-0.528
23,RRIRLRPPRLPRPRPRPTRMPRP,0.513
24,RRIRKRPPRLPRPRPRPNVSPRP,0.106
25,RRIRRRPPRLPRPRPRPYTNPRP,-0.95

row,Sequence,shrunken log2 fold change
1,RRIRVRPPRLPRPRPRPRYIPRP,-0.458
2,RRIRGRPPRLPRPRPRPVYHPRP,-0.174
3,RRIRCRPPRLPRPRPRPTPIPRP,0.244
4,RRIRYRPPRLPRPRPRPYRGPRP,-0.765
5,RRIRCRPPRLPRPRPRPFNCPRP,-1.32
6,RRIRQRPPRLPRPRPRPLQEPRP,-0.129
7,RRIRFRPPRLPRPRPRPAMRPRP,0.307
8,RRIRDRPPRLPRPRPRPVHCPRP,-0.0301
9,RRIRKRPPRLPRPRPRPYLIPRP,-1.9
10,RRIRNRPPRLPRPRPRPHQWPRP,-0.0998
11,RRIRWRPPRLPRPRPRPQDWPRP,0.36
12,RRIRKRPPRLPRPRPRPISKPRP,-0.357
13,RRIRCRPPRLPRPRPRPMDWPRP,-0.0172
14,RRIRARPPRLPRPRPRPICRPRP,0.349
15,RRIRERPPRLPRPRPRPTIIPRP,-0.664
16,RRIRKRPPRLPRPRPRPCEIPRP,0.128
17,RRIRRRPPRLPRPRPRPWDEPRP,0.0108
18,RRIRARPPRLPRPRPRPRTRPRP,1.05
19,RRIRVRPPRLPRPRPRPQCVPRP,-0.218
20,RRIRFRPPRLPRPRPRPKIFPRP,-0.197
21,RRIRDRPPRLPRPRPRPDMCPRP,-0.0138
22,RRIRQRPPRLPRPRPRPRINPRP,-0.184
23,RRIRYRPPRLPRPRPRPASTPRP,-0.0914
24,RRIRYRPPRLPRPRPRPGVRPRP,0.0103
25,RRIRLRPPRLPRPRPRPQFVPRP,-0.0035
